Assay results reported in the supplement of paper PMC7125110.
± gives the standard error. Fewer inactive variants are shown than the library holds.

B1: glmS ribozyme (parent)
chain: AUAAAAGCGCCAGAACUACAGAAAUGUAGUUGACGAGGAGGAGGUUUAUCGAAUUUUCGGCGGAUGCCUCCAAA

Experiments:
Conditions in all cases: with glucosamine-6-phosphate
[1] = variants of: B1; assay: self-cleavage kobs at 640 uM GlcN6P; higher = faster cleavage; RNA array
Outline: (§1)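 Tiles of sequenced MiSeq chips were imaged over ~14 h at 37 °C. On them, barcoded ribozyme variants had been transcribed in situ by E. coli RNA polymerase and were tracked via a hybridised Cy3 probe while glucosamine-6-phosphate (40 μM to 10 mM) in HEPES/KCl/Mg(OAc)2 buffer flowed in. Per-tile medians, normalised to baseline and to non-cleaving reference variants, were fit to one- or two-exponential decays for kobs, and weighted Michaelis–Menten fits gave kcat and KM.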

[2] = variants of: B1; assay: self-cleavage kobs at 2500 uM GlcN6P; higher = faster cleavage; RNA array
Outline: as §1

[3] = variants of: B1; assay: self-cleavage kobs at 10000 uM GlcN6P; higher = faster cleavage; RNA array
Outline: as §1

Row | Variant | self-cleavage kobs at 640 uM GlcN6P [1] [s⁻¹] | self-cleavage kobs at 2500 uM GlcN6P [2] [s⁻¹] | self-cleavage kobs at 10000 uM GlcN6P [3] [s⁻¹]
1 | U31C G60U G63C | < 1e-05 |  | 
2 | A14U C16G G35U A36U G38U U56C U57G G60U | < 1e-05 | < 1e-05 | 
3 | A14U C34U G37C G51A U55C | < 1e-05 |  | 
4 | U31C G35C G38U | < 1e-05 |  | 
5 | G32A A48C U55G G66A | < 1e-05 |  | 
6 | U31A G37U U47A U54C U69G | 5.3e-05 ± 2e-05 |  | 
7 | A14U A15G G35U | < 1e-05 | < 1e-05 | 
8 | G29C G40A U65G | < 1e-05 |  | 
9 | C16U A36U G59U A64U | < 1e-05 |  | 
10 | U31G U55A U69G | 7.53e-05 ± 1.6e-05 | 7.74e-05 ± 2.2e-05 | 
11 | U31G G35C C68G | < 1e-05 | < 1e-05 | 
12 | A15C G44C C50U | < 1e-05 | < 1e-05 | 
13 | G29A U30A A42G A53G | 9.25e-05 ± 2.3e-05 |  | 
14 | A15G G35C A42U C50G C68A C71U | < 1e-05 | < 1e-05 | 
15 | C16U A36G A39C | < 1e-05 |  | 
16 | C19A A33U C50G U56C C58U G63U C68G | 0.000599 ± 0.00016 |  | 
17 | C16G A33U A52U C61U C71U | < 1e-05 |  | 
18 | U30G U55A | 0.0024 ± 0.00049 | 0.00295 ± 0.00084 | 
19 | G32U A64C C71A | < 1e-05 | < 1e-05 | 
20 | U31G G51U | < 1e-05 |  | 
21 | G29C G59U C71U | < 1e-05 |  | 
22 | U30G A48U U65A U69G C70U | 4.35e-05 ± 2e-05 |  | 
23 | G29U U45C U55G | 3.35e-05 ± 1.5e-05 | 7.82e-05 ± 1.1e-05 | 

Row | Variant | self-cleavage kobs at 640 uM GlcN6P [1] [s⁻¹] | self-cleavage kobs at 2500 uM GlcN6P [2] [s⁻¹] | self-cleavage kobs at 10000 uM GlcN6P [3] [s⁻¹]
24 | A15C A36C G41U | < 1e-05 |  | 
25 | C16A G63U C67U | 0.000112 ± 4.7e-05 |  | 
26 | G29A C34U G60U | < 1e-05 |  | 
27 | U31A U55G C67U | 0.000859 ± 0.00023 | 0.000519 ± 0.00025 | 
28 | U31A A42U G59U | < 1e-05 |  | 
29 | A15U G40U U55A U56A | 5.38e-05 ± 1.6e-05 |  | 
30 | A15G A39C A53U | 0.000793 ± 0.00012 | 0.00236 ± 0.00069 | 
31 | G32A G44U C67G | 0.000431 ± 0.0001 | 0.00127 ± 0.00059 | 
32 | G29U A48U A53U G63A | < 1e-05 | < 1e-05 | 
33 | C16A C68G | 0.000279 ± 0.00013 | 3.3e-05 ± 9.2e-06 | 
34 | A15C A48U C68U | < 1e-05 |  | 
35 | A14G U54C C61G G62C | < 1e-05 |  | 
36 | G29A G37A | 0.000124 ± 3.6e-05 | 0.000156 ± 5.7e-05 | 
37 | A14U G29A G62A U69G | 7.37e-05 ± 2.9e-05 |  | 
38 | C16G A33U G38A G43U C67U | < 1e-05 | < 1e-05 | 
39 | A14G G35U | < 1e-05 | < 1e-05 | 
40 | A14U A15U C68U | 8.97e-05 ± 2.4e-05 | 0.000111 ± 3.2e-05 | 
41 | G32A U57G U69G | 0.000252 ± 0.00011 |  | 
42 | A14G G35U A52U | < 1e-05 |  | 
43 | G29C U49C C50G G51U U65C | < 1e-05 | < 1e-05 | 
44 | U30G C50U A64G G66U | < 1e-05 | < 1e-05 | 
45 | C16A C34G C68G | 0.000145 ± 4.7e-05 | 0.000193 ± 6.5e-05 | 4.24e-05 ± 2e-05
46 | A14U A36C U47C | < 1e-05 |  | 

Row | Variant | self-cleavage kobs at 640 uM GlcN6P [1] [s⁻¹] | self-cleavage kobs at 2500 uM GlcN6P [2] [s⁻¹] | self-cleavage kobs at 10000 uM GlcN6P [3] [s⁻¹]
47 | G29U C34U U55A | < 1e-05 | < 1e-05 | 
48 | G29U A33U U56A A64G | < 1e-05 |  | 
49 | U31A A52G U69G | 7.54e-05 ± 3.6e-05 | 7.91e-05 ± 2.3e-05 | 
50 | A14U U46C C70U | 0.000206 ± 5e-05 |  | 
51 | C16A G44C U54C | < 1e-05 |  | 
52 | A15C U54C G66U C70U | 7.59e-05 ± 1.8e-05 | 0.000351 ± 9.2e-05 | 
53 | C16U A39U A48U | 3.71e-05 ± 1.6e-05 | 7.54e-05 ± 1.5e-05 | 
54 | A15U U31A C34A | < 1e-05 | < 1e-05 | 
55 | U30G U54A C67G | 0.000105 ± 2.2e-05 |  | 
56 | U30G G37A A53G | 0.000102 ± 2.5e-05 |  | 
57 | U31C G60A U69A | < 1e-05 |  | 
58 | G29C U56C | 0.000147 ± 3.2e-05 | 0.000116 ± 2.1e-05 | 0.00068 ± 0.00019
59 | A15G G44C G59U | < 1e-05 | < 1e-05 | 
60 | G29U U69A C71G | 8.16e-05 ± 3.4e-05 |  | 
61 | U30A A48C C58A G60A | < 1e-05 |  | 
62 | U30A G40A C50U | < 1e-05 | < 1e-05 | 
63 | G32A G41A C50U | < 1e-05 | < 1e-05 | 
64 | A15G G40A G59U C67G | < 1e-05 | < 1e-05 | 
65 | C16A G32A C34A | < 1e-05 | < 1e-05 | < 1e-05
66 | U30G A39U U45G | 0.000324 ± 5.9e-05 | 0.00055 ± 0.0001 | 0.0014 ± 0.00018
67 | G32U C34A G44A C68A | < 1e-05 | < 1e-05 | 
68 | A15C A33C G59C | < 1e-05 | < 1e-05 | 
